Values quoted from earlier work in paper PMC7692841.

What was measured:
[1] = target: BRCA1-A complex (Homo sapiens) (UniProt Q6UWZ7)
[2] = target: ABRAXAS phosphopeptide (Homo sapiens) (UniProt Q6UWZ7); assay: ITC
[3] = target: BACH1 phosphopeptide (Homo sapiens) (UniProt Q9BX63); assay: ITC
[4] = target: ATRIP phosphopeptide (Homo sapiens) (UniProt Q8WXE1); assay: ITC
Sequence of ATRIP phosphopeptide (Homo sapiens) (Q8WXE1 whole entry): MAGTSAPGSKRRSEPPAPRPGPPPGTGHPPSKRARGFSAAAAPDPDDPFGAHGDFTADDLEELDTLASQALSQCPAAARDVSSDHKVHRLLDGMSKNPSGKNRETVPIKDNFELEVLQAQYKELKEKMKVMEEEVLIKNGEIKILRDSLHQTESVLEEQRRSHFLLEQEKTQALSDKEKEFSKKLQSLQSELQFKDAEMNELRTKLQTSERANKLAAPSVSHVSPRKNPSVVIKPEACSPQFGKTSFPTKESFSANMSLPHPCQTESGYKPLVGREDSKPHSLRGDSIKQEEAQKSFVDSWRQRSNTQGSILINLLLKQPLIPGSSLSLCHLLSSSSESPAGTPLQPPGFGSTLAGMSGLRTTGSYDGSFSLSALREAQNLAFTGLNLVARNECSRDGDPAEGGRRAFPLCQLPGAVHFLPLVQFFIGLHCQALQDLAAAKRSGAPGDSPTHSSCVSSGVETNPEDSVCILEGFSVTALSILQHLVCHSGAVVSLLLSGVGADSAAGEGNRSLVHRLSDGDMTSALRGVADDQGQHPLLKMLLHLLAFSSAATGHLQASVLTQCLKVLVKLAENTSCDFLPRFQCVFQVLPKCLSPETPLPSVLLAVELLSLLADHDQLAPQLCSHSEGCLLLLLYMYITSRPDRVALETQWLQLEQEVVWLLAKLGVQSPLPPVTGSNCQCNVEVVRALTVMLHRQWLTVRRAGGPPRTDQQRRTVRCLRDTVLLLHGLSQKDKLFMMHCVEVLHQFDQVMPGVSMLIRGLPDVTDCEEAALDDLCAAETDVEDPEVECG

Sequence of BRCA1 BRCT (P38398 1646-1859): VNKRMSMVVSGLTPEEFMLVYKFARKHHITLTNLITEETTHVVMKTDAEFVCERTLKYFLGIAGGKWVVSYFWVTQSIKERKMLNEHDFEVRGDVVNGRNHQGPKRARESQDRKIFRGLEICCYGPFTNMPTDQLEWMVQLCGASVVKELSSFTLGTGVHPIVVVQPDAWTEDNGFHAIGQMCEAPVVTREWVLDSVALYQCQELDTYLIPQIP
Sequence of ABRAXAS phosphopeptide (Homo sapiens) (Q6UWZ7 whole entry): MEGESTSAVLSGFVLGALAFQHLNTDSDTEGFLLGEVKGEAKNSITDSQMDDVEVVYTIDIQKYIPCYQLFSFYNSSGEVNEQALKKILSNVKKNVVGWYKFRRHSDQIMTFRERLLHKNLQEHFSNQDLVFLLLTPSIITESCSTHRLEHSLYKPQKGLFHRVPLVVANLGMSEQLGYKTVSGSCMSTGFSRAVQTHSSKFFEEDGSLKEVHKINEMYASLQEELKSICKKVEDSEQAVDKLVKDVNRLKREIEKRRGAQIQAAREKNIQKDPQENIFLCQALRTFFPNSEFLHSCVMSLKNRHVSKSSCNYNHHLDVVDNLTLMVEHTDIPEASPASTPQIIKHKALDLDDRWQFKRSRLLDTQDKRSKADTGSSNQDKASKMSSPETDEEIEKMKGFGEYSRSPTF
Sequence of BACH1 phosphopeptide (Homo sapiens) (Q9BX63 whole entry): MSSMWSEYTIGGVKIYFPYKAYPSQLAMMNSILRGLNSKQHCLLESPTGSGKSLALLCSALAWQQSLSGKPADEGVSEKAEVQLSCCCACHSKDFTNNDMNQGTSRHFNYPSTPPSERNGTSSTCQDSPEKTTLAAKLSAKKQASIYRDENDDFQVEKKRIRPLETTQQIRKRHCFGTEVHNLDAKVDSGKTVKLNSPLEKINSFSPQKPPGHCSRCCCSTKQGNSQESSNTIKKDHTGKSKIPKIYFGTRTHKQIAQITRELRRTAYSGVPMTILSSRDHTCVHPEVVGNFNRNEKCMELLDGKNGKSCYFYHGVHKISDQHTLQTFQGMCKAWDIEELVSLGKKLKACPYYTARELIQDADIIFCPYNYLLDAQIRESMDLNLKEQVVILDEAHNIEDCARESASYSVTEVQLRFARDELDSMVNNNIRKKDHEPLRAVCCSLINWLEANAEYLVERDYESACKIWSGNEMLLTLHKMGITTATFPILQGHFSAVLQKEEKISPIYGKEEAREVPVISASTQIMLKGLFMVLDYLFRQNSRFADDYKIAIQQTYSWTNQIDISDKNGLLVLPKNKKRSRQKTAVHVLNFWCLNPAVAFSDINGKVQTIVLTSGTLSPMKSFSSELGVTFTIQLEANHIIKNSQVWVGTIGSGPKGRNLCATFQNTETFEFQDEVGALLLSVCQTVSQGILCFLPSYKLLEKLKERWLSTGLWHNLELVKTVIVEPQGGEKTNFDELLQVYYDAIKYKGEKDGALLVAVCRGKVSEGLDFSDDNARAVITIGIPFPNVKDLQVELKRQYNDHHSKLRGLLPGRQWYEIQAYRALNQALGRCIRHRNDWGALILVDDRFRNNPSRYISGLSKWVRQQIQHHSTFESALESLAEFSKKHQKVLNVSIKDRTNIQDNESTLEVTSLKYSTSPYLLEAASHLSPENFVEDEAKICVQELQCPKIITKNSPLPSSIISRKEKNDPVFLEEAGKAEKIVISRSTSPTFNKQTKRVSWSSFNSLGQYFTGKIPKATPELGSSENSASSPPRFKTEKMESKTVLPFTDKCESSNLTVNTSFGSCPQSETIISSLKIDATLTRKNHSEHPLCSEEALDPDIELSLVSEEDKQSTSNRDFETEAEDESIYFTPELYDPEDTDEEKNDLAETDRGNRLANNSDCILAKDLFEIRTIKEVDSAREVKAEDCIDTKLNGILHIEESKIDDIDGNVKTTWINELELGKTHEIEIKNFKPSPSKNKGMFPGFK

In the case of BRCA1 BRCT (from UniProt P38398), the Kd [1] is listed as 80 nM, the Kd [2] is listed as 1200 nM and the Kd [3] is listed as 700 nM. The Kd [4] was 28.2 µM.
